Data reported in paper PMC11134608 (2023).
No end group written: not given here. fluorescein = fluorescein (FAM) fluorescent label

T1: RARA/RXRA heterodimer (ligand-binding domains) (UniProt P10276 175-421; P19793 224-462)
T1 chain 1: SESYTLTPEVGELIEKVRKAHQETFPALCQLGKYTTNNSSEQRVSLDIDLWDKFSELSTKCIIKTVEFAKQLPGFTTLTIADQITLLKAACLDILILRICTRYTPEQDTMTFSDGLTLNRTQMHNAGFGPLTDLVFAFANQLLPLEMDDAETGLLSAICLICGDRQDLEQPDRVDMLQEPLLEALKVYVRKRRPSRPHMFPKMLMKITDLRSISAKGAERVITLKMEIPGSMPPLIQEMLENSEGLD
T1 chain 2: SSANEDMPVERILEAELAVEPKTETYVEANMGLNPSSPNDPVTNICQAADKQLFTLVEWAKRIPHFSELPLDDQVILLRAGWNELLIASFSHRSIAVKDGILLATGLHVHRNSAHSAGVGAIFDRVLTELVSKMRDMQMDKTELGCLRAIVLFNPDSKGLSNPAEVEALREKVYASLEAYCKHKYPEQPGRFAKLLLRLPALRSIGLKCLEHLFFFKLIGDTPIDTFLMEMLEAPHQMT


Key:
[1] = target: T1, RARA/RXRA heterodimer (ligand-binding …); assay: FP; + ATRA
[2] = target: T1, RARA/RXRA heterodimer (ligand-binding …); assay: FP; + DMSO (no ATRA)
[3] = target: T1, RARA/RXRA heterodimer (ligand-binding …); assay: FP; Kapp, competition with fluorescein-NCOA1 peptide, + ATRA

Row | Binder | Kd [1] | Kd [2] | apparent binding constant (Kapp) [3]
1 | fluorescein-ARHKILHRLLQEGS [Fluorescein-labelled NCOA1 peptide residues 687–698 (Flc-ARHKILHRLLQEGS)] | 0.69 µM | 5.5 µM | 
2 | ARHKILHRLLQEGS (unlabelled competitor; the tracer form carries N-terminal fluorescein. The text prints limits 687-698 for a 14-mer; the LXXLL motif at 690-694 places RHKILHRLLQEGS at 686-698, with an extra N-terminal Ala in the printed peptide) [NCOA1 aa686] |  |  | 3.7 µM
3 | LQPYLRELLSAKD [UBR5 aa1098] |  |  | 41.4 µM
4 | RLDLLYRLLTATN [UBR5 aa1251] |  |  | 3.1 µM
